Test results taken from PMC4464074, “The HRDC domain of E. coli RecQ helicase controls single-stranded DNA translocation and double-stranded DNA unwinding rates without affecting mechanoenzymatic coupling”.

Tests used:
Assay in all cases: fluorescence anisotropy; SF50: 50 mM Tris-HCl pH 7.5, 50 mM NaCl, 1 mM DTT, 5 mM MgCl2, 50 µg/mL BSA, 25 °C; anisotropy with 10 nM forked duplex
Conditions in all cases: protein: recombinant; label: 3'-fluorescein on fork2; fork: 33 bp duplex with two 21-nt ssDNA arms (3' arm of fork1, 5' arm of fork2)
RecQY555A = RecQY555A (Escherichia coli, UniProt P15043 1-609, Y555A)
RecQWT = RecQWT (Escherichia coli, UniProt P15043 1-609)
RecQ523 = RecQ523 (Escherichia coli, UniProt P15043 1-523)

B1: forked duplex (fork1/fork2) (mixed)
DNA 1: CGTTGCGCAATTAAGCTCTAAGCCATCCGCAAATTTTTTTTTTTTTTTTTTTTT
DNA 2: TCCTTTTGATAAGAGGTCATTTTTGCGGATGGTTAGAGCTTAATTGCGCAACG
- Kd (RecQY555A): 46 ± 2 nM
- Kd (RecQWT): 13 ± 4 nM
- Kd (RecQ523): 60 ± 2 nM
